Experimental data published in patent US7067109.

Target: anti-VCAM-1•tTF coaguligand (anti-VCAM-1 antibody covalently linked through SMPT to truncated tissue factor) (human) (UniProt P13726)
Experiment: 125I-labeled 10H10 on anti-VCAM-1•tTF-treated IL-1α-activated bEnd.3 cells

UniProt P13726, sequence (P13726 other isoform, or with tags, fused parts or gaps): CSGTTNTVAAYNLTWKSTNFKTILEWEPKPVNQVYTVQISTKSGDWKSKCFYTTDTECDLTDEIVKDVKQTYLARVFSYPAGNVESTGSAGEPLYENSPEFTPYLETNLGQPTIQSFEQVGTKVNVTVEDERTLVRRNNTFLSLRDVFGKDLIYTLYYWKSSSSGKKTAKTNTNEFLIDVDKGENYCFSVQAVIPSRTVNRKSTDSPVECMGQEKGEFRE

“10H10, mouse monoclonal antibody against human tissue factor” was tested, and the amount of antibody bound to the cells at saturation was 8.7 fmol and the molecules of antibody bound per cell at saturation (molecules per cell) was 540000.
